According to PMC4676693:

Experiments:
Test in all cases: SPR; Biacore T200; anti-His antibody amine-coupled on a CM5 chip captures the His-tagged receptor (100 nM FcγRIa, 300 nM FcγRIIa_R131 and FcγRIIb, 200 nM FcγRIIIa_V158, 200 nM FcRn); IgG1 glycovariant, Fc-fragment or pre-incubated IgG1 complex injected as analyte (FcγRI 100 nM, FcγRIIa/b 300 nM, FcγRIIIa 200 nM); non-kinetic comparison, WT set as 100%; HBS-N (10 mM HEPES, pH 7.4, 150 mM NaCl)
[1] = biological target: His-tagged FcγRIIIa_V158 (human)
[2] = biological target: His-tagged FcγRIIa_R131 (human)
[3] = biological target: His-tagged FcγRIIb (human) (UniProt P31994)
[4] = biological target: His-tagged FcγRI (human) (UniProt P12314)
Sequence of UniProt P12314 (P12314 16-374): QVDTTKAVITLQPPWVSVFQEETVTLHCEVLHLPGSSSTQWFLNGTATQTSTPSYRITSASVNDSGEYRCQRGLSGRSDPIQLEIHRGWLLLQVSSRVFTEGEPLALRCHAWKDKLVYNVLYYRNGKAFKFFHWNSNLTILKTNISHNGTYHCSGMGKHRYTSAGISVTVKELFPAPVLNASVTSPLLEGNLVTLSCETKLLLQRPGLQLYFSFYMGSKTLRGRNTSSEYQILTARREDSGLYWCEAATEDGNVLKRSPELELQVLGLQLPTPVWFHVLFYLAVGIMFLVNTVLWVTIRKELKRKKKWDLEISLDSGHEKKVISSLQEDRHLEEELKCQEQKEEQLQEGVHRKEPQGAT

Sequence of UniProt P31994 (P31994 43-310): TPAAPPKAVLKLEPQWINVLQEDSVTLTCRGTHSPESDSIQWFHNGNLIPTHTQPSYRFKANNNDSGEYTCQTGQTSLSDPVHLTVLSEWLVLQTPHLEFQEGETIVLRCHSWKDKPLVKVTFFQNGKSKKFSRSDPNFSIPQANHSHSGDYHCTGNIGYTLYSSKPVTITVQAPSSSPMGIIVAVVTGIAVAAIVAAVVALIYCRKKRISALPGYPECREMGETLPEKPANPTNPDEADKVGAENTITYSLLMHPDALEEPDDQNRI

**Q.** For G0 IgG1 glycovariant (antibody), which percent binding (WT = 100%) [1] is on record?
**A.** 75%

**Q.** Which percent binding (WT = 100%) [1] does the source give for G1 IgG1 glycovariant (antibody) here?
**A.** 75%

**Q.** With G1+1SA IgG1 glycovariant (antibody) as the substance, how does the percent binding (WT = 100%) [1] read?
**A.** 75%

**Q.** With M3 IgG1 glycovariant (antibody) as the substance, how does the percent binding (WT = 100%) [2] read?
**A.** 45%

**Q.** What about the percent binding (WT = 100%) [3] of the same substance?
**A.** 65%

**Q.** What about the percent binding (WT = 100%) [1] of the same substance?
**A.** 70%

**Q.** For “deglycosylated IgG1 glycovariant (antibody)”, which percent decrease in binding against WT [4] is on record?
**A.** 40%
